Assay results as given in patent publication US8999894 (ALBERT EINSTEIN COLLEGE OF MEDICINE OF YESHIVA UNIVERSITY, dated 2015).

What was measured:
[1] = biological target: T1, recombinant E. coli DNA gyrase (E. coli, UniProt P0AES4 2-875; P0AES6 2-804); experiment: SPR (BIAcore 3000), MfpA amine-coupled to CM5 chip, E. coli DNA gyrase as analyte, 1:1 Langmuir fit
[2] = biological target: T1, recombinant E. coli DNA gyrase; experiment: cell-based or functional assay

T1 sequence (P0AES4 2-875 limits assumed, one chain of several): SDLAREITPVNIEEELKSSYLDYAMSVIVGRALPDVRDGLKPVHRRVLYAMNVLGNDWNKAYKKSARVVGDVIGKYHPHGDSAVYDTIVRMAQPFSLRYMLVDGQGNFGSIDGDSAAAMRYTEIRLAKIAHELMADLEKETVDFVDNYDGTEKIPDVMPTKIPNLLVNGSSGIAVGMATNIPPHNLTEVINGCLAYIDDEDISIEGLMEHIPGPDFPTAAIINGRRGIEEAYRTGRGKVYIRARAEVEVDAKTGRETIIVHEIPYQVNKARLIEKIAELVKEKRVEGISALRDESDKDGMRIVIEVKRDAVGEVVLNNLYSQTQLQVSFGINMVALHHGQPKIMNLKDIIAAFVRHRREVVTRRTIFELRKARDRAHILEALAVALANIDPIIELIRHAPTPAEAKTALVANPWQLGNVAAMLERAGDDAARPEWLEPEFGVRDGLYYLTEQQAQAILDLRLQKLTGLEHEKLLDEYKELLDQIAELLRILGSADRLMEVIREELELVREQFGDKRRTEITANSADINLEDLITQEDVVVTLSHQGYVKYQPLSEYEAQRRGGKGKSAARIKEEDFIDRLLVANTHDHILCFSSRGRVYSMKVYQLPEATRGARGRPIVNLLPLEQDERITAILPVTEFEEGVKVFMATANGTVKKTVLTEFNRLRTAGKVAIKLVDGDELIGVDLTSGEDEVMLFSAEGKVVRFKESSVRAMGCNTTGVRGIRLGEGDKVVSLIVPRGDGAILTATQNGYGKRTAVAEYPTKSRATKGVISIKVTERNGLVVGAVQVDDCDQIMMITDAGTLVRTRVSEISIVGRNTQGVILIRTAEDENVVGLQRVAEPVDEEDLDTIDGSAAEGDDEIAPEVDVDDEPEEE

B1: Mycobacterium tuberculosis MfpA pentapeptide repeat protein (Rv3361c gene product) (other)
chain: QQWVDCEFTGRDFRDEDLSRLHTERAMFSECDFSGVNLAESQHRGSAFRNCTFERTTLWHSTFAQCSMLGSVFVACRLRPLTLDDVDFTLAVLGGNDLRGLNLTGCRLRETSLVDTDLRKCVLRGADLSGARTTGARLDDADLRGATVDPVLWRTASLVGARVDVDQAVAFAAAHGLCLA
notes: also called MtMfpA
With B1 the Kd [1] was 460 nM, the koff [1] was ~0.0001 s⁻¹ and the “inhibition of ATP-dependent DNA supercoiling by E. coli DNA gyrase, apparent IC50” value [2] was ~1200 nM. For the same binder, the “inhibition of ATP-independent relaxation by E. coli DNA gyrase, apparent IC50” value [2] was ~1200 nM.
